From article PMC9381132 (Molecular Cancer Therapeutics, 2022)
Read-outs that look alike come from different tables or passages of the source.

What was measured:
[1] = molecular target: T1, human LY6G6D (recombinant protein of the BIAcore kinetics and of the epitope binning) (Homo sapiens, UniProt O95868); test: SPR
[2] = molecular target: T2, untagged human LY6G6D extracellular domain (construct used for structural studies) (human); test: SEC-MALS
T2 chain: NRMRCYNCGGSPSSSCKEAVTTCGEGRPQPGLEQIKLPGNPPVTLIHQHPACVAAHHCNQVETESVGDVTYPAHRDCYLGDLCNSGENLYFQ

[3] = molecular target: T1, human LY6G6D (recombinant protein of …); test: SPR; remark: listed apart in the source

B1: 1G4 Fab (Fab, V domains shown)
VH: EVQLQQSGPELVKPGASVKMSCKASGYTFTTYVMHWVQQKPGQGLEWIGYINPYNDGTKYNEKFKGKATLTSDTSSSTAYMELSSLTSDDSAVYYCGRRNFDYWGQGTLVTVSS
VL: DILMTQSPSSLTVSAGEKVTMSCKSSQSLLLSGNQENYLAWHQQKPGRSPKTLITWASTRISGVSDRFIGSGSGTDFTLTINSVQAEDLAVYYCQQSYSAPYTFGQGTKVEIK
- binding result [1]: binds
- stoichiometry N [2]: 1

B2: anti-LY6G6D murine mAb clone 1G4 (antibody, V domains shown)
VH: B1 VH
VL: B1 VL
- binding result [3]: binds
